Assay results from US20200369776A1.

Target: full-length monkey CD137 on the cell surface (cynomolgus monkey)
Assay: flow cytometry, PMA + ionomycin activated cynomolgus T cells, antibody at 100 nM (Example 4d), Alexa Fluor 647 anti-human Fc; SSC-H against antibody binding

Chain of full-length monkey CD137 on the cell surface (cynomolgus monkey) (Q07011 other isoform, or with tags, fused parts or gaps): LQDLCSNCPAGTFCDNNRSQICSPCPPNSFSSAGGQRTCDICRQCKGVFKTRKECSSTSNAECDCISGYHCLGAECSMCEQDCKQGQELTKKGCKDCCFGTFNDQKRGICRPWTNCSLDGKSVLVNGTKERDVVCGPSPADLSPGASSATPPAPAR

percent of cells in the lower right (antibody-positive) quadrant: 1.5%
Substance: human IgG4 isotype control antibody
